What was measured:
[1] = target: Adenosine A2A receptor (A2AAR), human, residues 1 to 316, with the M1A/M4T mutation, reconstituted in rHDLs (nanodiscs) (human) (UniProt P29274)
[2] = target: Adenosine A2A receptor (A2AAR), human, residues 1 to 316, with the M1A/M4T mutation, reconstituted in rHDLs (nanodiscs) (human) (UniProt P29274); remark: listed apart in the source
[3] = target: Adenosine A2A receptor (A2AAR), human, residues 1 to 316, with the M1A/M4T mutation, reconstituted in rHDLs (nanodiscs) (human) (UniProt P29274); remark: listed apart in the source

Sequence of heterotrimeric G protein consisting of human Gαs, bovine Gβ1, and human Gγ2 (P63092 whole entry): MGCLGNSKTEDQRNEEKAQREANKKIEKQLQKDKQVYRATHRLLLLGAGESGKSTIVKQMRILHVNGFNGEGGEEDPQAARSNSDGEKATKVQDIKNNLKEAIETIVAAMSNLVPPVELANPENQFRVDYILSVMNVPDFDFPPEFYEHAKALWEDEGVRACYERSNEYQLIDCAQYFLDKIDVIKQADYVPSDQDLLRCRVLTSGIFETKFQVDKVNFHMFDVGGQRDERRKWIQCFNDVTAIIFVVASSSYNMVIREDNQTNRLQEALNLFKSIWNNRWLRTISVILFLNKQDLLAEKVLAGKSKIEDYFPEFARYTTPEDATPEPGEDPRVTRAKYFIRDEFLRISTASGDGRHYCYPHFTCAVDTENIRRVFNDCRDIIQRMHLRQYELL
Sequence of heterotrimeric G protein consisting of human Gαs, bovine Gβ1, and human Gγ2 (P62871 whole entry): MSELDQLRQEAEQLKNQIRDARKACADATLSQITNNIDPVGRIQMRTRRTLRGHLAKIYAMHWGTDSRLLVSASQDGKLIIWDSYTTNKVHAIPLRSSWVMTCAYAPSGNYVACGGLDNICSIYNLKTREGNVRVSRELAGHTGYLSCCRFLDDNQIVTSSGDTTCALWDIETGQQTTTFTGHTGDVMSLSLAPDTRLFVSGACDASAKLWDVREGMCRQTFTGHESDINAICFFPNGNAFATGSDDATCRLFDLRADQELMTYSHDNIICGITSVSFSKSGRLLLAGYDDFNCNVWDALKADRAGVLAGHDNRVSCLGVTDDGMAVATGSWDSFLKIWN
Sequence of heterotrimeric G protein consisting of human Gαs, bovine Gβ1, and human Gγ2 (P59768 whole entry): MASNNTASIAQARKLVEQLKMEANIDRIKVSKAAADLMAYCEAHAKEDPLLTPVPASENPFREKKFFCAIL
Sequence of Adenosine A2A receptor (A2AAR), human, residues 1 to 316, with the M1A/M4T mutation, reconstituted in rHDLs (nanodiscs) (human) (P29274 1-316 M1A/M4T): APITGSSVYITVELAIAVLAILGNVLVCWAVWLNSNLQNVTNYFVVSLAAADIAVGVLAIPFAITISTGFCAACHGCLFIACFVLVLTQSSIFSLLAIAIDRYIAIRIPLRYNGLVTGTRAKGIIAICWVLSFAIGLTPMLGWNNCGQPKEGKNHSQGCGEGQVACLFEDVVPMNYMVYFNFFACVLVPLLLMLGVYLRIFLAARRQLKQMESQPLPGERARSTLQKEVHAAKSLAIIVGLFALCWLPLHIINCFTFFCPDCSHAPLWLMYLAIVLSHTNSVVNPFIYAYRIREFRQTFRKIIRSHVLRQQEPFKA

initial [35S]-GTPγS binding rate, A2AAR in rHDL(DHA) in which DHA constitutes 15% of the acyl chains, against A2AAR in rHDL(POPC/POPG) [1]: 1.29 times
GDP/GTP reaction rate, A2AAR in rHDL(DHA) against A2AAR in rHDL(ARA) [2]: 1.7 fold
initial [35S]-GTPγS binding rate, A2AAR in rHDL(ARA) against A2AAR in rHDL(POPC/POPG), full agonist [3]: 1.1 times
initial [35S]-GTPγS binding rate, A2AAR in rHDL(DHA) against A2AAR in rHDL(POPC/POPG), full agonist [3]: 1.88 times
Substance: heterotrimeric G protein consisting of human Gαs, bovine Gβ1, and human Gγ2 (from UniProt P63092 1-394; P62871 1-340; P59768 1-71) (complex)
